Biological target: T1, Galectin-3 protein (human, UniProt P17931 2-250)
T1 construct: Endogenous antigen in human atheroma tissue sections; also called Gal3
Test: double immunofluorescence staining of human endarteriectomy sections (colocalisation with anti-galectin-3 antibody)
Source text: FIG. 3: Immunofluorescent staining of human endarteriectomy sections and aortas of ApoE^{-/-} and WT mouse with P3 scFv-Fc or commercial control antibodies. (A) Double immunofluorescence staining of human endarteriectomy sections. […] Size bars: 50 μm. (B) Fluorescent macroscopy of P3 scFv-Fc after ex vivo injection in ApoE^{-/-} mouse and WT mouse. A human IgG was used as a negative control antibody.
Human tissue specimens were provided by Pr DUCASSE Eric, vascular surgeon at CHU Pellegrin. For immunofluorescence stainings, human sections were deparaffinised and rehydrated. After a retrieval step (pH9), slides were blocked with (1) PBS/1% BSA/0.2% Triton X10 followed by (2) 5% goat serum and (3) addition of goat anti human IgG H+L and Fcγ specific diluted at 100 μg/mL. Primary scFv-Fc produced in baculovirus or commercially available antibodies were added overnight at 4° C. Slides were incubated with scFv-Fc diluted at 50 μg/mL in PBS/1% BSA and, as controls, secondary antibody alone or commercial antibodies according to the manufacturer's instructions. […] After 1h incubation, slides were washed in PBS 3 times and mounted with Vectashield (VWR, France).

T1 sequence (P17931 2-250 limits assumed): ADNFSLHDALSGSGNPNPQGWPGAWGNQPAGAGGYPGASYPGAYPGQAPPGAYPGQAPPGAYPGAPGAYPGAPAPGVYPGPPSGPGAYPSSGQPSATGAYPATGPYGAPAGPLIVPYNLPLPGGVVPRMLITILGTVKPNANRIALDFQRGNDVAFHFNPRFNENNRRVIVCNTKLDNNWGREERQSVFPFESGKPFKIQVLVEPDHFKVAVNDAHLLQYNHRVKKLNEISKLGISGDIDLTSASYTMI

B1: P3 scFv-Fc (Fc fusion)
chain: QVQLQQSGPGLVKPSQTLSLTCAISGDSVSSNNFGWNWIRQSPSRGLEWLGRTYYRSKWYNDYAVSVRSRITINPDTSKNQFSLQLNSVTPEDTAVYYCARQGSTYFDYWGQGTLVTVSSEFGGGGSGGGGSGGGGSRDIVMTQSPSSLSASVGDRVTITCRASQTISSSLAWFQQRPGEAPNLLIYSASSLQSGVPSRFSGSGSGTDFTLTISSLQPEDFATYSCQQTYSAPPTFGGGTKLEIK
notes: these probably describe the HEK construct without the 2 extra cysteines; also called scFv-Fc P3; Human P3 scFv-Fc; not shown: human IgG1 Fc domain with 2 extra cysteine residues at the C-terminal end (baculovirus/Sf9 construct)
binding result: binds

From patent US20210079101A1 (LABORATOIRE FRANAIS DU FRACTIONNEMENT ET DES BIOTECHNOLOGIES, published 2021)
